Laboratory results published in article PMC11139282, “Structure and activity of the septal peptidoglycan hydrolysis machinery crucial for bacterial cell division” (PLOS Biology, 2024).

B1: FtsX(His&Myc) [E. coli K-12] / FtsE(Flag) [E. coli K-12] (parent)
chain 1: MIRFEHVSKAYLGGRQALQGVTFHMQPGEMAFLTGHSGAGKSTLLKLICGIERPSAGKIWFSGHDITRLKNREVPFLRRQIGMIFQDHHLLMDRTVYDNVAIPLIIAGASGDDIRRRVSAALDKVGLLDKAKNFPIQLSGGEQQRVGIARAVVNKPAVLLADEPTGNLDDALSEGILRLFEEFNRVGVTVLMATHDINLISRRSYRMLTLSDGHLHGGVGHE
chain 2: MNKRDAINHIRQFGGRLDRFRKSVGGSGDGGRNAPKRAKSSPKPVNRKTNVFNEQVRYAFHGALQDLKSKPFATFLTVMVIAISLTLPSVCYMVYKNVNQAATQYYPSPQITVYLQKTLDDDAAAGVVAQLQAEQGVEKVNYLSREDALGEFRNWSGFGGALDMLEENPLPAVAVVIPKLDFQGTESLNTLRDRITQINGIDEVRMDDSWFARLAALTGLVGRVSAMIGVLMVAAVFLVIGNSVRLSIFARRDSINVQKLIGATDGFILRPFLYGGALLGFSGALLSLILSEILVLRLSSAVAEVAQVFGTKFDINGLSFDECLLLLLVCSMIGWVAAWLATVQHLRHFTPE

Variants of: B1
Experiment: western blot of membrane fraction, quantified (FtsE retained on membrane with FtsX)
Settings: with FtsE(Flag) [E. coli K-12]; parent: 1.3; read off a plot

Row | response (OmpC adjusted) | Variant
1 | 0.5 | chain 2 F267A
2 | 0.38 | chain 2 V257P
3 | 0.51 | chain 2 T264K
4 | 0.11 | chain 2 I261D
